Data published in PMC11021425, “Salmonella manipulates macrophage migration via SteC-mediated myosin light chain activation to penetrate the gut-vascular barrier” (The EMBO Journal, 2024).

Columns and labels:
[1] = target: T1, SteC FL (full-length SteC) (Salmonella enterica, UniProt D0ZIB5); assay: Phos-tag gel kinase assay; assay type: biochemical; settings: phosphate donor, 100 μM; acceptor murine Myl12a; 10 mM MgCl2/MnCl2, pH 7.5, 30 °C
T1 construct: full-length (457 aa), expressed in E. coli BL21(DE3) from pGL01, Ni-NTA, His-tag removed by PPase, Superdex 200; dimeric catalysis inferred from the kinase domain structure
T1 sequence (D0ZIB5 whole entry, the tested form may be a part): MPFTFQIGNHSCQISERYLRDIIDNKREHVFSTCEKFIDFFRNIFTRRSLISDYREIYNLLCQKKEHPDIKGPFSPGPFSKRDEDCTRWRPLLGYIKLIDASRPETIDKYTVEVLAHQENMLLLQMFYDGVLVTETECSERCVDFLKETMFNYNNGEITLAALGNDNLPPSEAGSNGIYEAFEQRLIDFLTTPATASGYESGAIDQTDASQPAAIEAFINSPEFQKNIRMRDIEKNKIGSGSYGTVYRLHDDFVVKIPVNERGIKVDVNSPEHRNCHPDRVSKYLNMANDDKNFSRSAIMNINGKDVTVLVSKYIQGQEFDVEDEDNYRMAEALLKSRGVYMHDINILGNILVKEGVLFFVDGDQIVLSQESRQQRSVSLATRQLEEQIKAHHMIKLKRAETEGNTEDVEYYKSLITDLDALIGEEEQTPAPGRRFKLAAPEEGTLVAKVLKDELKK

Myl12a, biotinylated [2] = target: Myl12a, biotinylated (UniProt Q6ZWQ9); assay: BLI
[3] = system: Nc1nc2c(ncn2[C@@H]2O[C@H](COP(=O)(O)OP(=O)(O)OP(=O)(O)O)[C@@H](O)[C@H]2O)c(=O)[nH]1; assay: purified protein; settings: phosphate donor, acceptor murine Myl12a, 10 mM MnCl2, 25 mM Tris-HCl pH 7.5, 1 mM DTT, 30 °C, 30 min
[4] = system: O=c1ccn([C@@H]2O[C@H](COP(=O)(O)OP(=O)(O)OP(=O)(O)O)[C@@H](O)[C@H]2O)c(=O)[nH]1; assay: purified protein; settings: phosphate donor, acceptor murine Myl12a, 10 mM MnCl2, 25 mM Tris-HCl pH 7.5, 1 mM DTT, 30 °C, 30 min
[5] = target: Myl12a, biotinylated (murine) (UniProt Q6ZWQ9); assay: BLI
Myl12a, biotinylated [6] = target: T2, Myl12a, biotinylated (murine, UniProt Q6ZWQ9 1-172, biotin (EZ-Link biotin, MCR = 1:1)); assay: BLI
T2 chain: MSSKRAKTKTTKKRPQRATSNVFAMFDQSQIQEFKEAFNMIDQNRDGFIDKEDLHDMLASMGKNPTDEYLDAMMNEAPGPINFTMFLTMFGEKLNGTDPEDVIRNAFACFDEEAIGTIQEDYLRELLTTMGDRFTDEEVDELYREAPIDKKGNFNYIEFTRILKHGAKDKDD

Nc1ccn([C@@H]2O[C@H](COP(=O)(O)OP(=O)(O)OP(=O)(O)O)[C@@H](O)[C@H]2O)c(=O)n1 [CTP]
Phos-tag gel kinase assay [1]: SteC can employ all four nucleotides (ATP, CTP, UTP, and GTP) for phosphorylation

Native SteC mut1
Kd (Myl12a, biotinylated [2]): 1.09 µM

Native SteC mut4
Kd (Myl12a, biotinylated [2]): 1.11 µM

SteC FL (full-length SteC) (Salmonella enterica subsp. enterica serovar Typhimurium str. 14028S)
Km [3]: 5.84 µM | Km [4]: 5.53 µM

SteC full-length protein (natural protein)
Kd [5]: 1.34 µM

SteC-C (194 aa–457 aa) (domain or fragment)
Kd [5]: 23.3 µM

B1: SteC 194 aa–364 aa (domain or fragment)
chain: ATASGYESGAIDQTDASQPAAIEAFINSPEFQKNIRMRDIEKNKIGSGSYGTVYRLHDDFVVKIPVNERGIKVDVNSPEHRNCHPDRVSKYLNMANDDKNFSRSAIMNINGKDVTVLVSKYIQGQEFDVEDEDNYRMAEALLKSRGVYMHDINILGNILVKEGVLFFVDGD
Kd (Myl12a, biotinylated [6]): 8.83 µM

B2: SteC 168 aa–364 aa fragment (domain or fragment)
chain: LPPSEAGSNGIYEAFEQRLIDFLTTPATASGYESGAIDQTDASQPAAIEAFINSPEFQKNIRMRDIEKNKIGSGSYGTVYRLHDDFVVKIPVNERGIKVDVNSPEHRNCHPDRVSKYLNMANDDKNFSRSAIMNINGKDVTVLVSKYIQGQEFDVEDEDNYRMAEALLKSRGVYMHDINILGNILVKEGVLFFVDGD
Kd (Myl12a, biotinylated [6]): 0.71 µM
